For one molecule, median rupture force results are on record in paper doi:10.1101/2020.02.11.943597.

The target of assay [1] is T1, N-cadherin (human (endogenous in primary fibroblasts)), P19022.
T1 chain: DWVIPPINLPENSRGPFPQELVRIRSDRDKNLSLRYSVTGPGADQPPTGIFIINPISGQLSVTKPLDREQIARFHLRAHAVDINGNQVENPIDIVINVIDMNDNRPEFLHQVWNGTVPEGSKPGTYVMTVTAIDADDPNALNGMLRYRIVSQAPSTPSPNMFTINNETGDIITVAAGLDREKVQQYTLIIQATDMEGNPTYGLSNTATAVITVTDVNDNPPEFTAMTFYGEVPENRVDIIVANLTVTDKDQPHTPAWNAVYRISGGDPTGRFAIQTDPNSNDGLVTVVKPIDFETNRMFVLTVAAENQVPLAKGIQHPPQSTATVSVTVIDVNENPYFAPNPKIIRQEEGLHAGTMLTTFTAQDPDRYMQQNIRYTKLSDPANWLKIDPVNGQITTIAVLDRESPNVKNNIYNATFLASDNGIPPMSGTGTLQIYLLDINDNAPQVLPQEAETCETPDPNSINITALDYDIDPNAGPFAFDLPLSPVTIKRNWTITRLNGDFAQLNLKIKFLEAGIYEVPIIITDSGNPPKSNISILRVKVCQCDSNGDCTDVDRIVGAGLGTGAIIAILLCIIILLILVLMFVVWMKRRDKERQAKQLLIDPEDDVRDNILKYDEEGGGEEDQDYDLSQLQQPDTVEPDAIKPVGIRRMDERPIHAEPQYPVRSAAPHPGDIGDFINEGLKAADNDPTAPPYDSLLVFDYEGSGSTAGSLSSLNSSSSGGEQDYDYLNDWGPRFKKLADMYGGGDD
The assay is described as follows: AFM single-cell force spectroscopy. To be noted: remark: other sources report otherwise.

The target in assay [2] is T1, N-cadherin (human (endogenous in …)). The assay is described as follows: AFM single-cell force spectroscopy. To be noted: remark: other sources report otherwise.

B1: N-cadherin, P19022 160-906 (natural protein)
chain: T1 chain
Consider B1, for which the figures for the median rupture force in assay [1] and in assay [2] were 51.9 pN and 45.2 pN, respectively.
